# Experiments:
# [1] = biological target: full-length human DLL4 expressed on the surface of CHO cells (human, UniProt Q9NR61 27-685); test: cell-based or functional assay
# [2] = biological target: T1, recombinant human DLL4 (Cat# 1506-D4/CF, R&D Systems) (human, UniProt Q9NR61 27-529); test: ELISA, hDLL4 coated 0.5 ng/ul, Fab 3.13 nM
# T1 construct: Bought protein; also called hDLL4; h DLL4
# Method: (§1) The plate was blocked by adding 1% BSA in Tris-buffered Saline Tween (TBST) and incubating for 1 hour at room temperature followed by washing 2 times with 150 μl TBST. A Fab antibody was serially diluted in 1% BSA in PBS. A 50 μl aliquot of each serial dilution was added, in triplicate, to each well and the plate was incubated for 1 hour at room temperature followed by washing 2 times with TBST. 50 μl of either goat anti-human kappa HRP conjugated secondary antibody (Cat # A7164-1 mL, Sigma-Aldrich) or goat anti-human lambda HRP conjugated secondary antibody (Cat # L1645-1 ml, Sigma-Aldrich), diluted 1:1000 in 1% BSA in PBS, was added to each well and the plate was incubated for 30 minutes at room temperature followed by washing 3 times with 200 μl TBST. Finally, 50 μl TMB one-component reagent (Cat # TMBW-1000-01, BioFax) was added and allowed to develop for 2 minutes at room temperature. The reaction was immediately halted by the addition of 50 μl 0.5M H₂SO₄ and the absorbance at 450 nm was measured using an ELISA plate reader.
# [3] = biological target: T1, recombinant human DLL4 (Cat# …); test: ELISA, hDLL4 coated 0.5 ng/ul, Fab 25.00 nM
# Method: as §1
# [4] = biological target: T2, full-length human DLL4 expressed on the surface of CHO cells (human, UniProt Q9NR61 26-685); test: flow cytometry competition, 250 nM biotinylated Notch-Fc as competitor, Fab 10 nM
# T2 construct: also called CHO-DLL4; DLL4-expressing CHO cells
# Method: (§2) Streptavidin-PE was used as a detection molecule.
# (§3) Fab was 5-fold serially diluted in 2% BSA/PBS from a starting concentration of 50 nM. […] PE-labeled streptavidin (Cat# 21627, Pierce-Thermo Scientific) was then added to a final dilution of 1:5 followed by incubation for 10 minutes at room temperature. The cells were then washed twice in 2% BSA/PBS and analyzed by flow cytometry on a BD FACSAria.
# [5] = biological target: T2, full-length human DLL4 expressed on the …; test: flow cytometry competition, 250 nM biotinylated Notch-Fc as competitor, Fab 2 nM
# Method: as §2, §3
# [6] = biological target: T1, recombinant human DLL4 (Cat# …); test: ELISA, hDLL4 coated 0.5 ng/ul, Fab 1.56 nM
# Method: as §1
# [7] = biological target: T1, recombinant human DLL4 (Cat# …); test: ELISA, hDLL4 coated 0.5 ng/ul, Fab 50.00 nM
# Method: as §1
# [8] = biological target: T1, recombinant human DLL4 (Cat# …); test: ELISA, hDLL4 coated 0.5 ng/ul, Fab 12.50 nM
# Method: as §1
# [9] = biological target: T1, recombinant human DLL4 (Cat# …); test: ELISA, hDLL4 coated 0.5 ng/ul, Fab 100.00 nM
# Method: as §1
# [10] = biological target: T1, recombinant human DLL4 (Cat# …); test: ELISA, hDLL4 coated 0.5 ng/ul, Fab 0.78 nM
# Method: as §1
# [11] = biological target: T1, recombinant human DLL4 (Cat# …); test: ELISA, hDLL4 coated 0.5 ng/ul, Fab 6.25 nM
# Method: as §1
# [12] = biological target: T2, full-length human DLL4 expressed on the …; test: flow cytometry competition, 250 nM biotinylated Notch-Fc as competitor, Fab 50 nM
# Method: as §2, §3
# [13] = biological target: T2, full-length human DLL4 expressed on the …; test: flow cytometry, 250 nM biotinylated Notch-Fc on CHO-DLL4 cells, no Fab (0 nM control)
# Method: as §2, §3
# [14] = biological target: T3, Recombinant Human DLL4 (Cat# 1506-D4/CF, R&D Systems) (human, UniProt Q9NR61 27-529); test: ELISA, DLL4 coated
# T3 construct: Bought protein; also called rHuman DLL4; hDLL4
# [15] = biological target: T3, Recombinant Human DLL4 (Cat# …); test: ELISA, hDLL4 coated, estimated from dose-dependent binding
# [16] = biological target: T4, recombinant mouse DLL4 (Cat# 1389-D4-050/CF, R&D Systems) (mouse, UniProt Q9JI71 28-525); test: SPR, mDLL4 on chip, row 'Surface 1' (first)
# T4 construct: Bought protein; also called mDLL4
# T4 sequence (Q9JI71 28-525 limits assumed): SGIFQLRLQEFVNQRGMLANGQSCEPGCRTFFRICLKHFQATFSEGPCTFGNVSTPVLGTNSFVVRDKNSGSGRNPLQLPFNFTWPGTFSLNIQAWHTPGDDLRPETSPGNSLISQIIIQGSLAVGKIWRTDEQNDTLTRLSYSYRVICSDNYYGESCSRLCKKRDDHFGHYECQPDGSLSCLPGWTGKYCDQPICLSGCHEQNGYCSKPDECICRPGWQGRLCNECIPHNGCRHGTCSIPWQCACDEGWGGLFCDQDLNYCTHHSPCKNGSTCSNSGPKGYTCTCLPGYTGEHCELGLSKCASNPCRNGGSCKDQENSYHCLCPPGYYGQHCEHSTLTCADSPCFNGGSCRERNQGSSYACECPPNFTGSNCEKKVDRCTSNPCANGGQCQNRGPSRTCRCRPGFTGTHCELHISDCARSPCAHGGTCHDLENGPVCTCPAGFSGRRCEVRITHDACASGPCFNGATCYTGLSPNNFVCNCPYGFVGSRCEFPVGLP
# [17] = biological target: T4, recombinant mouse DLL4 (Cat# …); test: SPR, mDLL4 on chip, average of three surfaces
# [18] = biological target: T4, recombinant mouse DLL4 (Cat# …); test: SPR, mDLL4 on chip, row 'Surface 1' (third)
# [19] = biological target: T5, recombinant human DLL4 (Cat# 1506-D4/CF, R&D Systems) (human, UniProt Q9NR61 27-529); test: ELISA, DLL4 coated, Fab 0.74 nM
# T5 construct: Bought protein; also called hDLL4; rHuman DLL4
# Outline: (§4)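 Plates were blocked with 1% BSA in TBST for 1 h at room temperature, then serially diluted Fab in 1% BSA/PBS was added in triplicate for 1 h. Bound Fab was detected with HRP-conjugated goat anti-human kappa or lambda secondary (1:1000, 30 min), TMB developed 2 min, stopped with H₂SO₄, A450 read.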
# [20] = biological target: T5, recombinant human DLL4 (Cat# …); test: ELISA, DLL4 coated, Fab 6.67 nM
# Outline: as §4
# [21] = biological target: T5, recombinant human DLL4 (Cat# …); test: ELISA, DLL4 coated, Fab 20 nM
# Outline: as §4
# [22] = biological target: T5, recombinant human DLL4 (Cat# …); test: SPR (ProteOn), hDLL4 amine-coupled on chip
# Outline: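 Binding constants came from global fits of response data per surface. Three densities of amine-immobilised DLL4 were used, and Fabs started at 1 μM with 3-fold dilutions. Running buffer was HEPES 10 mM pH 7.4, NaCl 150 mM, Tween-20 0.01%, BSA 0.1 mg/ml at 25° C on a GLM chip.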
# [23] = biological target: T5, recombinant human DLL4 (Cat# …); test: ELISA, DLL4 coated, Fab 2.22 nM
# Outline: as §4
# [24] = biological target: T4, recombinant mouse DLL4 (Cat# …); test: SPR, mDLL4 on chip, row 'Surface 1' (second)
binder,measurement,setting,value
"IgG H:APFF VLTH & L:NDH LS (antibody, V domains shown) VH: QVQLVQSGAEVKKPGASVKVSCKASGYTFTSYYMHWVRQAPGQGLEWMGIGLPTGHSTSYAQKFQGRVTMTRDTSTSTVYMELSSLRSEDTAVYYCAREEYAPFSAEYFQFWGQGTLVTVSS VL: EIVLTQSPATLSLSPGERATLSCRASQNVDHYLAWYQQKPGQAPRLLIYDALNRSTGIPARFSGSGSGTDFTLTISSLEPEDFAVYYCQQRSNWPPWTFGQGTKVEIKR","IC50, Notch-activation (luciferase reporter), T98G cells with CHO-DLL4",[1],~6 nM
same,"fold efficiency against Fab H:APFF VLTH & L:NDH LS, Notch-activation (luciferase reporter)",[1],30 fold
"Fab VH5-51_IGHD5-18*01>3_IGHJ4*01 G100K/G104T G24T/S28R/G35V (H:KT TRV) & V3-4_IGLJ1*01 (Fab, V domains shown, Tested as Fab from E. coli (Plasmid A: CH1, His6, Flag; Plasmid E: CL lambda); also called H:KT TRV & L:wt) VH: EVQLVQSGAEVKKPGESLKISCKTSGYRFTSYWIVWVRQMPGKGLEWMGIIYPGDSDTRYSPSFQGQVTISADKSISTAYLQWSSLKASDTAMYYCARRKYSYTYDYFDYWGQGTLVTVSS VL: QTVVTQEPSFSVSPGGTVTLTCGLSSGSVSTSYYPSWYQQTPGQAPRTLIYSTNTRSSGVPDRFSGSILGNKAALTITGAQADDESDYYCVLYMGSGISYVFGTGTKVTVL",ELISA absorbance at 450 nm,[2],0.187 A450
same,ELISA absorbance at 450 nm,[3],0.6 A450
same,signal of Notch-Fc bound to CHO-DLL4 (streptavidin-PE),[4],244
same,signal of Notch-Fc bound to CHO-DLL4 (streptavidin-PE),[5],448
same,ELISA absorbance at 450 nm,[6],0.183 A450
same,ELISA absorbance at 450 nm,[7],0.976 A450
same,ELISA absorbance at 450 nm,[8],0.389 A450
same,ELISA absorbance at 450 nm,[9],1.45 A450
same,ELISA absorbance at 450 nm,[10],0.143 A450
same,ELISA absorbance at 450 nm,[11],0.31 A450
same,signal of Notch-Fc bound to CHO-DLL4 (streptavidin-PE),[12],141
"biotinylated Notch-Fc (rHuman Notch-1/Fc Chimera, cat# 3647-TK-050, R&D Systems) (Fc fusion, biotinylated with EZ-Link NHS-Biotin Reagent (sites not given), Bought Notch-1/Fc chimera; Fc part of the bought chimera not given) ARGPRCSQPGETCLNGGKCEAANGTEACVCGGAFVGPRCQDPNPCLSTPCKNAGTCHVVDRRGVADYACSCALGFSGPLCLTPLDNACLTNPCRNGGTCDLLTLTEYKCRCPPGWSGKSCQQADPCASNPCANGGQCLPFEASYICHCPPSFHGPTCRQDVNECGQKPGLCRHGGTCHNEVGSYRCVCRATHTGPNCERPYVPCSPSPCQNGGTCRPTGDVTHECACLPGFTGQNCEENIDDCPGNNCKNGGACVDGVNTYNCRCPPEWTGQYCTEDVDECQLMPNACQNGGTCHNTHGGYNCVCVNGWTGEDCSENIDDCASAACFHGATCHDRVASFYCECPHGRTGLLCHLNDACISNPCNEGSNCDTNPVNGKAICTCPSGYTGPACSQDVDECSLGANPCEHAGKCINTLGSFECQCLQGYTGPRCEIDVNECVSNPCQNDATCLDQIGEFQCICMPGYEGVHCEVNTDECASSPCLHNGRCLDKINEFQCECPTGFTGHLCQ",signal of Notch-Fc bound to CHO-DLL4 (streptavidin-PE),[13],531
"Fab H:APFF VLTH & L:NDH (Fab, V domains shown, Fab, kappa light chain) VH: QVQLVQSGAEVKKPGASVKVSCKASGYTFTSYYMHWVRQAPGQGLEWMGIVLPTGHSTSYAQKFQGRVTMTRDTSTSTVYMELSSLRSEDTAVYYCAREEYAPFSAEYFQFWGQGTLVTVSS VL: EIVLTQSPATLSLSPGERATLSCRASQNVDHYLAWYQQKPGQAPRLLIYDASNRATGIPARFSGSGSGTDFTLTISSLEPEDFAVYYCQQRSNWPPWTFGQGTKVEIKR",fold increased binding affinity against the antibody mutants with heavy chain H:APFF ALTH,[14],~10 fold
same,Kd,[15],~1 nM
"Fab VH5-51_IGHD5-18*01>3_IGHJ4*01 H:KT TRV & V3-4_IGLJ1*01 (Fab, V domains shown, Fab, lambda light chain; also called H:KT TRV & L:wt; G100K/G104T G24T/S28R/G35V) VH: EVQLVQSGAEVKKPGESLKISCKTSGYRFTSYWIVWVRQMPGKGLEWMGIIYPGDSDTRYSPSFQGQVTISADKSISTAYLQWSSLKASDTAMYYCARRKYSYTYDYFDYWGQGTLVTVSS VL: QTVVTQEPSFSVSPGGTVTLTCGLSSGSVSTSYYPSWYQQTPGQAPRTLIYSTNTRSSGVPDRFSGSILGNKAALTITGAQADDESDYYCVLYMGSGISYVFGTGTKVTVL",Kd,[15],~50 nM
"Fab VH1-46_IGHD6-6*01_IGHJ1*01 S102A/S103P/S104F/H111F I51V/N52L/S54T/G56H & L6_IGKJ1*01 S28N/S30D/S31H S52L/A55S (Fab, V domains shown, Fab made in E. coli: VH on CH1 with His6 and Flag tags (Plasmid A), VL on kappa CL (Plasmid C); also called H: APFF VLTH & L: NDH LS) VH: QVQLVQSGAEVKKPGASVKVSCKASGYTFTSYYMHWVRQAPGQGLEWMGIVLPTGHSTSYAQKFQGRVTMTRDTSTSTVYMELSSLRSEDTAVYYCAREEYAPFSAEYFQFWGQGTLVTVSS VL: EIVLTQSPATLSLSPGERATLSCRASQNVDHYLAWYQQKPGQAPRLLIYDALNRSTGIPARFSGSGSGTDFTLTISSLEPEDFAVYYCQQRSNWPPWTFGQGTKVEIKR",Kd,[16],7.3 nM
same,koff,[16],0.0021 s⁻¹
same,kon,[16],287000 M⁻¹ s⁻¹
same,Kd,[17],9.7 nM
same,koff,[17],0.00192 s⁻¹
same,kon,[17],208000 M⁻¹ s⁻¹
same,Kd,[18],10.9 nM
same,koff,[18],0.00188 s⁻¹
same,kon,[18],173000 M⁻¹ s⁻¹
same,ELISA absorbance at 450 nm,[19],0.263 A450
same,ELISA absorbance at 450 nm,[20],0.747 A450
same,ELISA absorbance at 450 nm,[21],0.91 A450
same,Kd,[22],1.7 nM
same,koff,[22],0.00109 s⁻¹
same,kon,[22],684000 M⁻¹ s⁻¹
same,ELISA absorbance at 450 nm,[23],0.523 A450
same,Kd,[24],10.8 nM
same,koff,[24],0.00178 s⁻¹
same,kon,[24],165000 M⁻¹ s⁻¹

# Reference: patent US20110318339A1 (FABRUS, published 2011)
